Reference: the domain aggregation screens of Martell et al. (2025)

Experiment: soluble fraction after stress (log2 fold change); higher = more stays soluble; pooled small domains, quantitative proteomics
Details: stress: pH 4
How it was run: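 Aggregation propensity here comes from the fold change in the soluble amount of each small protein domain after acid stress, measured in pooled custom libraries by high-throughput quantitative proteomics. The acid stress was pH 4. On the log2 scale, higher values mean more of the domain stayed soluble.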

Sequence | soluble fraction (log2)
HMQATDEEIENFTSSAITAYKLTKEEGYIISMRDMKPIMEIVKTEYPMANGKVVSKVMNNYING | 0.22
HMIGDNNELFQKAQLTPREKEVALLLLQGETNSDIAKILYVGLSTVKKHISSIFEKTKVKSRTEFISKVR | 0.0668
HMNDTNEEAVLSIILKNPQATQGAIAKEVGASLSTVKRIMRNLQKSGKLRREGTNRNGSWVVTGQK | 0.136
HMNTSSVTVHYQDEAGKSLADTVTLTGKVGETYSSEQKKITGYNFKEVRGNPKGQFTTEAQTVTYVYTQAA | -0.195
HMSNEEEIEGLVSKVLDNNPEIVERIRSGEDKLISYLVGEVMKQSSSSLNPGIVKEIIVNKTI | -0.154
HMGEPVNSPMPGTILRVEVTQGAAVKEGQLLVVLEAMKMENEILAPKDGTVAQVVVQKGSHVETGSPLIVL | -0.429
HMFQTAADVAYRIISQKILDGEFPPGMKLSRRKMAEVTSVSVIPVIEALKKLEEDGLVESKPQWGSFVTI | -0.246
HMTKGVKVEIGTEEASVDLYVVMEYGTPIQKAAYDAQESVRKAIETMTNLHVVRVDVHVQGVSF | ≥ 0.43
HMDVNAQAGYDKLQSNQLDGARHDYEQALKTDPNNVDTLLALAAIAQRQGRSADADGYRQRAIDAD | -0.245
HMSVFTDIYHQADHETKLMLIHEIKIVGDEKEFRLLKSIIDSTSNDLSKEANDALNAIKIRLALSK | -1.25
HMGLTYEQILTDVQRFVTQNHADTLSNEGNPEEARKLLKDYILQYVQNRSYHVDGQTTEELVDSLYED | -1.13
HMEVSKETFPAYVAVDSLPVYKSASTSSSKVTTIDFGREVTVVETRGGWAKIQYGSYKGFAEIEGMSKN | -0.0269
HMGTPSAEELAFSAQKGNAVMRIMEIREKYIENGGQISDEERNEIERLIAIYYPKASIFDYLPMMG | -1.42
HMQNVFARKNLTSVSVDKLGEEEILLFKQSFESKNLTSSEALRDLSKKGMSEAELRKLKVRLTQL | -0.177
HMKSSLAKNLETLMQERQISQTRLSKISGVSQSYIFKILNDQIKKPSLDTLEKLATALDSTVAQLNH | 0.191
HMNPYQDSILLWKSFDTPLTNEDFMGLSKEELRIARNEIYAAYGRIFTSQDLIDYFNSKPWYQGTTPA | -0.883
HMLKRLTVEFSAEMPKKMTSEQKEELASVLSEDPRPAYQNDENREYGLDYGEFSVKFKVKDGVLTVTSVTE | 0.226
HMTEPIESVTTIAGRRIPYRLVRSLRARRMRMTIKESQVTVTLPRGVPLGEAERFLQQNAAWLFKQLDKP | 0.162
HMGNGALLTLTVKERQVIQLVAEGKSNKQIARDLNVTPETIKSHMKNIFAKLKVDNRAQAAVMVQQ | 0.0874
HMRMDKHLWLSLLRLINEGSAEELQTKKDELLQSLERLRITRGPVRGDVLRVVRLIDEELVSRLHLDQR | -0.697
HMQTTPAGHELLIRYFANGNIRERGMMKDGKRNGIWIFYDESGMEIRKTKYKMGKIISDYDLN | 0.0593
HMNGKPDMTPIPAGSRNNDLHAWAYGRLLNHPDNAEAIRRDLFERGQTSGLKESELETIWQSIRRQLGGD | 0.126
HMEDQFWQNRAEMALASARRAGRIVTYAEMADAADIPAPQRIHKLTLWLEATMRQDHASGQPLRAALV | -0.0778
HMLLTHEEQIVKRGWQAPVGPFAILDSRAEAMHGDLEMLRGDREAAEQHFRRAWQIIGPIVEQ | 0.0572
HMLTPSRVLPYLFEDSFFIDTLSLEKDQVVGFLEYIDERLPPQDLMNKSKEFELIDYLINESEAYLSQ | -0.311

Sequence | soluble fraction (log2)
HMDNWLSGLAVEADRMILTQPGEVFDRLSRAFEATLIRRALASTGGRRIEAAHLLGIGRNTITRKIQDLGL | -1.45
HMEERDMKGSISDLVERYADQLTDEQLEEIVLGIKNGLLEEDVKSYFFLPAEDMRRIRTALEQVR | -1.6
HMDALTLSIDAQGALYWNGQPVSRELAAQRFVEAAAQRPQPELHLRADQNVAYRHVAMTLADASRAGLTR | -0.632
HMDSLSLTELRIDSASPWIGNRISDFSPYAGELVIMIIRGEETIVPNGDTIILDKDLLVIYSS | -1.39
HMPTMVAQINEIVQAKLPGSGLKDYTIRLVESQRDGVVVWVNGTRYLGVDEVAEPQVQALLKEAVAEWERS | -0.942
HMYIENIGDYLKSHDIKPSYQRIKVFEYLMQHKNHPTVDMIYKSLVDEIPTLSKTTVYNTLNLFIEKQI | 0.0963
HMANLAQITKTNAVALALKDVGAYNSEDLMKFIDLDKVVLGEDGKPQLEDTINSLKESSPYLFQ | -0.843
HMYEVVPNMRGLTYNQATAALAAAGLKVELSDSIYDEHTQPGTVLDQSPRPNTKVKPNRVVYLTVNAF | -0.0904
HMSQIAENNQKYVGTIQKVLVEGTSKNNDDMLTGRTDSNKVVIFEGDKKLIGNMVELKIVSEHMWYLKGEL | -0.0811
HMDPVILDINSVKALLGISNKADFMAELSRLVVTEGDKKMIIPLAKEVGIDNVAVYKRNEIENISNYK | -0.297
HMEEPEFEPYVVRLTAIALNVRTGPGTQYPVAMVIRGGGAFTIVAEENGFGLLKSGAGWIMLQHTERV | -0.427
HMRQIRELFRLKFGSLLPTSDRQIAAQLGVARSTVAEYLERARAAGLSWPLPLDLSDADLEERLFA | ≥ 0.43
HMPKAKASARNDTRTRLLTIGTEVLSQKGFASTGVEEILSVAGVPKGAFYYYFESKAAFGLAVIENYE | 0.22
HMRALPFSFANRHGVLIREISDGVAHAVYRIGSSPLGLAEARRFVGMPLMLTPVAREAFDSLLQQTYEQG | -0.612
HMINSFDYLQAIFTELMKSQSKMTNQDAAKRLFMQGKVAVSNRDREGLRMVLAQLVTLLPKEELGGLSTVS | ≥ 0.43
HMGDAVSRAYFALADDLLKGELTETVSEVLIRTRYELTSAQLQAVLHRIAQEGWAHKKPGYGWEFSAMLT | -1.39
HMQQAVTMQKPGRLLRNADGNGGAVRDLDVGMMLYPTGNRSELMWEVDDELGNRGWVNSTLFGLS | -0.585
HMIRMPNLIGLSVRSAEQQLVIAGLKKGIVHQVNDPRLKEVIDMQALGHKITAGSSIPKGTEVDLYIGNGT | 0.282
HMASPKEALWRSLAEEPDTWWDNRERKSQPGANPRSPDFKHKESGEALWIESRDTPTWVLETL | -1.5
HMTQDFEPGGQVFSRGEWLTIIRVNKSNGAVSSVTTPNYSFLGYSGTMKVTPDRITDYKAPSAEEAAVAS | -0.0277
HMSWEDSLLKQAREIIDMYPQKRSAVGPLLHLAQSKDGYISDDSISVISKLVGITEVQLKSVSTFYSMYK | -1.23
HMNLDPIKRKSEILSLFESHKNVKFNEIFFEKVNKEFTVLTFLIILELVKDNIIDFSQTQEGLIEFFTR | 0.204
HMREEIESVYKTLAVTEIPYIARGNSARLGSGIQTVYDFYRMEGMQVSKILGRNGSVLWLELHG | -0.159
HMGVKIELNENEQAIFAAMQKQVEAVLPDLRAQFADMSNKAWDNSVKTLTKNNLLKVSKEAEILFIRL | -1.09
HMSVAPISYSQFESYLEQGKVASVAVGQDTIAGRFTAPVDGKSQFVTTIVNPQILDRIDKSGVEITGV | -0.175

Sequence | soluble fraction (log2)
HMAGGNHPTRLELLDSAAHIAERDGTSALTVDAITKSAGHAKGTFYIHFDDRADLLVEMHRR | -0.323
HMGPPAVGSKLQDARKAQQLSLDELSKRAGVSKSMLSEVERNQANPTVGVLWRLATALGISLTDLLG | -0.549
HMSAQPMEYSRFYSDVTQGRVAEVEIEGREINGRLSTGERFKTFSPETDNKALIGHLLDNGVVIEGKPP | 0.0726
HMGWTTPAGIAVGMDKSVLQDAYGKEDDTFQDKGILYYQYFVHPSRMSGLSFGIKNDKIVSITAYMD | -1.23
HMNLDVPGIIKRAKQALNLKRDSELAEFLGVSRATVTNWAARNSIDFRLLLDKLGNTVDYNWLLLGKGNPK | -0.188
HMNKPTFNIFNNRLTFPFKGDITIYSLDGKRVFSAYNESSVNLSFLNRGSYISEFNNSRSVLIL | -0.948
HMLGVLEYYNNGQKKSERTFKGGMQIYTEWYENGQMKAEERKWIDQLGSLKFLNLLSTEWDENGNEISRME | -1.28
HMTVGEKIQYYRKKIGLSQEELGQKMLLSRQTISLWEMDKTLPTVDNLLRLKEIFSVSIDELLSENEPK | -0.257
HMQTYNQLKRGMTEWIQAGQKQKAYELFAGVAGQLSLSSAAGKKQYNELVTILNRAGFGIPLE | ≥ 0.43
HMTYNEYPEKEMQDLIDKSISQQEQAASQYGYSLGDYVTARYGFQSESDFREYVQGLAEDYMKEKI | -1.33
HMRDYKTALQEWVQRTPGQPIAYRLVDELGPDHARVFVMEVTVGGQSAGQGRGRTKKEAEQLAARAALEKL | -0.0915
HMPKAMAIMSEIAGTVHIDDTKKSRHVEVTGVDDNGAPVTKSYLIPFGHRLKVMEGDVLVKGALLT | -0.0288
HMGLNPSILVKLGNANIKTIDNLADLASDELKEILEDISITSKEADEIIMRARSSWFEEDDKKEDNI | 0.175
HMITKEDVANKKVNLLFFGNFHKMKLPDFEWGITEMMQDRDYLYGSLTKDLYFLGLVLDRKYKI | 0.124
HMPVNEEFKRLIDKIKYEFSINQAQISERLGVKSTYLSDMINGRVPYNESMQKKIHEVFHIG | 0.114
HMIELTTDYKKRVVEALVSARENYSGSDSDFARKWSIDKTVYSRLKKGYQEGLLSVGKYIELGMELNVSSR | 0.0127
HMDRSVTAAELRLAAMDLLARREHGSQELEAKLSRRFHKRHYDVELLRSVIEQLTVEGLLSDERFAVS | -1.07
HMDGMRASDMVRAALAGAGKTQKELAEHMGWTPQNLSGRLKNNSLTFDELSKALHFAGYEVSMSDANGAG | -0.115
HMVKVSVYPNPAVDRITISGEVKAYAVYDATGKVVMKDTDYRGGAIGVSHLPAGIYIVRTDAGAVTVNK | -0.246
HMGGASVTDQQIRDFVSAHTDDPMAIYKAAVANGISSARLAQVTGISIADIEAFVRKNNLPSF | -0.206
HMQTMTAGERREAILRELEQAQGPVSASALAKRFHVSRQAVVGDVAMLRALNSPIAATPRGYVLTR | 0.0633
HMSVADNALSRQAIESRIALFIQNEDPNHPRSDADIQKELAQAGVVISRRAITKYRNHLHIPSASLRRR | -0.12
HMVPLGDLSKNERRAMELAATNGNVTTRALADDAQVTKRTASTTLRRLAKRGLLEWIGKGPSDPGQFYRIP | -0.119
HMKQLNKRQNDILSFAEKQGYVSVENLAKLFSVTQQTIRRDINYLSDNELLVRTHGGAYYSS | -0.0112
HMDSGLEQAKTAALENAELETSQVTFIKAELDYDDGKKVYEIEFVTSAMKYEYQVKADDFSILEMSKETIE | -0.129
